Data set [1] addresses T1, Sp1 (UniProt P08047 P08047:2-785). Description: competition; unlabeled mutant competitor had no effect on complex with GC-box. The source says: (§1) Sp1 is known to bind to a GC-box through its three zinc finger domains. The m285 cloned in the present invention has three zinc finger domains that share a very high homology with the Sp family, and therefore the protein was expected to bind to a GC-box. Thus, 285F, 285N, and 285C were expressed as GST fusion proteins in E. coli to examine their binding to a GC-box. GST fusion proteins purified with glutathione Sepharose, and as the GC box a DNA probe having the nucleotide sequence in the Waf-1 promoter region which sequence binds to Sp1 were used. DNA probe was prepared by labeling ds-(5′-TCGAAAGGAGGCGGGACCCGAGCT-3′/SEQ ID NO: 25) containing a GC-box sequence with 33-P. The DNA probe was reacted with GST-285F, GST-285N, and GST-285C described above in EMSA buffer (20 mM HEPES, 40 mM KCl, 6 MM MgCl₂, 1 mM EGTA, 1 mM DTT, 0.1% NP-40, 10% Glycerol, 0.15% BSA, 25 ng/μl sonicated salmon sperm DNA) for 20 minutes. To examine the presence of competitive inhibition, either an unlabeled GC-box DNA probe or unlabeled mutant GC-box DNA probe (ds-(5′-TCGAAAGGAGTTTTGACCCGGAGCT-3′/SEQ ID NO: 26)) was further added to a similar reaction system. Recombinant Sp1 was used as a positive control. The reactants were electrophoresed on 5% acrylamide gel and were exposed to imaging plates. Analyses were performed using BAS2000 imaging analyzer.
(§2) As a result of gel shift assay, bands that were considered to correspond to DNA-protein complex were observed when GST-285F, GST-285C, or recombinant Sp1 were reacted with the 33-P labeled GC-box DNA probe (FIG. 9; lanes 1, 4, and 9). No complex b and could be observed for GST-285N reacted with the GC-box DNA probe (FIG. 9; lane 7). The addition of unlabeled GC-box DNA probe vanished or decreased the complex bands of GST-285F, GST-285C, or recombinant Sp1, and the GC-box DNA probe (FIG. 9; lanes 2, 5, and 10). Further, the addition of unlabeled mutant GC-box DNA probe to a similar reaction system had no effect on the complex bands of GST-285F, GST-285C, or recombinant Sp1, and the GC-box DNA probe (FIG. 9; lanes 3, 6, and 11).

The target in data set [2] is T2, GST-285F (m285 full length) (Mus musculus, UniProt Q9JHX2 SEQ:1-398). The description is as above. Conditions: tags: GST N-terminal (pGEX 4T-3).
T2 sequence (Q9JHX2 whole entry): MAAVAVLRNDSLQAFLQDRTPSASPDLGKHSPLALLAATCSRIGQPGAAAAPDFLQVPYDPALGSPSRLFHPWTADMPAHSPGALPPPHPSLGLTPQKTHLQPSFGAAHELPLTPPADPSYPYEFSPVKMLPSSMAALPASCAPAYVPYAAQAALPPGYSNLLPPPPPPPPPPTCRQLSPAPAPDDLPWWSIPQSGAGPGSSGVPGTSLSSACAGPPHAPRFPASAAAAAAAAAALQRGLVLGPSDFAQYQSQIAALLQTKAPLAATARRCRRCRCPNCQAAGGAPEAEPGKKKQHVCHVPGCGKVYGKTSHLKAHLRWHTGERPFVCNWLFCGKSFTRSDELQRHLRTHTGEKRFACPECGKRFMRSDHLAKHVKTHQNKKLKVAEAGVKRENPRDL
Excerpt: as §1, §2

The target of data set [3] is T3, GST-285C (m285 C-terminal, three zinc fingers) (Mus musculus, UniProt Q9JHX2 SEQ:271-398). Described as above. Conditions: tags: GST N-terminal (pGEX 4T-3).
T3 sequence (Q9JHX2 271-398): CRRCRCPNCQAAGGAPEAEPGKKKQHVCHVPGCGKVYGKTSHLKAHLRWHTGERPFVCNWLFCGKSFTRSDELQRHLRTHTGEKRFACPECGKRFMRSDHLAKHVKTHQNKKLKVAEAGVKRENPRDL
Excerpt: as §1, §2

Data set [4] has as its target T1, Sp1. Nature of the data set: EMSA; positive control; competed by unlabeled GC-box. Conditions: label: 33P.
Excerpt: as §1, with “analyzer. […]” for “analyzer.”
(In general: In EMSA bound probe runs differently from free probe, usually more slowly.)

The target of data set [5] is T2, GST-285F (m285 full length). Nature of the data set: EMSA; 20 mM HEPES, 40 mM KCl, 6 mM MgCl2, salmon sperm DNA; competed by unlabeled GC-box. Conditions: tags: GST N-terminal (pGEX 4T-3); label: 33P.
Excerpt: as §1, with “analyzer. […]” for “analyzer.”

For data set [6], the target named is T3, GST-285C (m285 C-terminal, three zinc …). Nature of the data set: EMSA; same buffer; competed by unlabeled GC-box. Conditions: tags: GST N-terminal (pGEX 4T-3); label: 33P.
Excerpt: as §1, with “analyzer. […]” for “analyzer.”

Data set [7] concerns the target GST-285N (m285 N-terminal) (Mus musculus, UniProt Q9JHX2 SEQ:1-278). Nature of the data set: EMSA; no complex; lacks zinc fingers. Conditions: tags: GST N-terminal (pGEX 4T-3); label: 33P.
Excerpt: as §1, with “analyzer. […]” for “analyzer.”

T1 sequence (P08047 2-785, one chain of several): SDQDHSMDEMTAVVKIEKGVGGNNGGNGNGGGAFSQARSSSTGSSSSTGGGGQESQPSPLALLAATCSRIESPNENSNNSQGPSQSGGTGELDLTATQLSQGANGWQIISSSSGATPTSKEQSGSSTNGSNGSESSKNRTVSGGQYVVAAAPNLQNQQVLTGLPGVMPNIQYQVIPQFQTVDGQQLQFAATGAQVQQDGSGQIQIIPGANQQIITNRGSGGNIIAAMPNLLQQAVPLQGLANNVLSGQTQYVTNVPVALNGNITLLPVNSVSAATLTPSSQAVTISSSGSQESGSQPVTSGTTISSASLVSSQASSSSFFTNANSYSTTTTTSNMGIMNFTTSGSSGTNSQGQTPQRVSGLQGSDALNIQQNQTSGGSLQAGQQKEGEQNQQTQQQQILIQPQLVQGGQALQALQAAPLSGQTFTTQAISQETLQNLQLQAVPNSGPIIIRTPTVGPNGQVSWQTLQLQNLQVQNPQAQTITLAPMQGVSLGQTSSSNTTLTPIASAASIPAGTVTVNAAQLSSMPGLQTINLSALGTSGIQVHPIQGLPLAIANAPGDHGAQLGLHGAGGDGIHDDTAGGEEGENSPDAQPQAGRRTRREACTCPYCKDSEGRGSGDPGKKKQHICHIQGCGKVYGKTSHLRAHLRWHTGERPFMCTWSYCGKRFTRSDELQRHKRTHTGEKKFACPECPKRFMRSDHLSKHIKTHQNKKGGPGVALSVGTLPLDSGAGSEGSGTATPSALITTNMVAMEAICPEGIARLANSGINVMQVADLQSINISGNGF
Chain of GST-285N (m285 N-terminal) (Q9JHX2 1-278): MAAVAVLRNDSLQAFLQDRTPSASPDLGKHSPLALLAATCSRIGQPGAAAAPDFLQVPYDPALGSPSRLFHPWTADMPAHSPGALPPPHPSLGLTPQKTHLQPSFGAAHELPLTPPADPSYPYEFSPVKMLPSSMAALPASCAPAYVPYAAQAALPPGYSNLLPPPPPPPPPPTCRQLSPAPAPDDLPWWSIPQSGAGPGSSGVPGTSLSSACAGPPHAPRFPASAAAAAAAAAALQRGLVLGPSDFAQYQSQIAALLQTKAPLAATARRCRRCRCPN

B1: mutant GC-box (dsDNA)
DNA 1: TCGAAAGGAGTTTTGACCCGGAGCT
DNA 2: AGCTCCGGGTCAAAACTCCTTTCGA
As for B1, the binding result in data set [1], in data set [2] and in data set [3] was “no binding” throughout.

B2: Waf-1 promoter GC-box probe (dsDNA)
DNA 1: TCGAAAGGAGGCGGGACCCGAGCT
DNA 2: AGCTCGGGTCCCGCCTCCTTTCGA
With B2, the binding result was “binds” in data set [4], “binds” in data set [5], “binds” in data set [6] and “no binding” in data set [7].

Values taken from patent publication US20030162205, “Novel transcription factor having zinc finger domain” (published 2003).
